± gives the uncertainty stated by the source.

Abundance fitness data for 70 variants are collected here from the Human Domainome abundance scans (Beltran et al. 2025).

The chains are these.
B1: POU domain, class 3, transcription factor 1, residues 247 to 324; numbered along this chain, Q03052 (parent)
chain: EDAPSSDDLEQFAKQFKQRRIKLGFTQADVGLALGTLYGNVFSQTTICRFEALQLSFKNMCKLKPLLNKWLEETDSSS

The variants in the series derive from B1. The series is described as follows: abundance fitness (aPCA) (normalised: wild type 0, dead -1); higher = more abundant; growth selection in yeast, the domain comes from the species named. To be noted: Homo sapiens.
For the variant EDAPSSDDLEQFAKQFKQRRIKWGFTQADVGLALGTLYGNVFSQTTICRFEALQLSFKNMCKLKPLLNKWLEETDSSS, the abundance fitness was -0.224 ± 0.09.
For EDAPSSDDLEQFAKQFKQRRIKGGFTQADVGLALGTLYGNVFSQTTICRFEALQLSFKNMCKLKPLLNKWLEETDSSS, the abundance fitness was -0.56 ± 0.12.
With EDAPSSDDLEQFAKQFKQRRIKEGFTQADVGLALGTLYGNVFSQTTICRFEALQLSFKNMCKLKPLLNKWLEETDSSS, the abundance fitness was -0.47 ± 0.15.
The value for EDAPSSDDLEQFAKQFKQRRIKRGFTQADVGLALGTLYGNVFSQTTICRFEALQLSFKNMCKLKPLLNKWLEETDSSS was -0.313 ± 0.068; that for EDAPSSDDLEQFAKQFKQRRIKIGFTQADVGLALGTLYGNVFSQTTICRFEALQLSFKNMCKLKPLLNKWLEETDSSS was -1 ± 0.49.
The value for EDAPSSDDLEQFAKQFKQRRIKAGFTQADVGLALGTLYGNVFSQTTICRFEALQLSFKNMCKLKPLLNKWLEETDSSS was -0.226 ± 0.075; that for EDAPSSDDLEQFAKQFKQRRIKCGFTQADVGLALGTLYGNVFSQTTICRFEALQLSFKNMCKLKPLLNKWLEETDSSS was -0.629 ± 0.16; that for EDAPSSDDLEQFAKQFKQRRIKDGFTQADVGLALGTLYGNVFSQTTICRFEALQLSFKNMCKLKPLLNKWLEETDSSS was -0.301 ± 0.2.
The value for EDAPSSDDLEQFAKQFKQRRIKVGFTQADVGLALGTLYGNVFSQTTICRFEALQLSFKNMCKLKPLLNKWLEETDSSS was -0.686 ± 0.11.
Turning to EDAPSSDDLEQFAKQFKQRRIKMGFTQADVGLALGTLYGNVFSQTTICRFEALQLSFKNMCKLKPLLNKWLEETDSSS, the abundance fitness stood at 0.124 ± 0.072.
Then EDAPSSDDLEQFAKQFKQRRIKSGFTQADVGLALGTLYGNVFSQTTICRFEALQLSFKNMCKLKPLLNKWLEETDSSS, with -0.59 ± 0.13; and EDAPSSDDLEQFAKQFKQRRIKFGFTQADVGLALGTLYGNVFSQTTICRFEALQLSFKNMCKLKPLLNKWLEETDSSS, with -0.219 ± 0.15.
Consider EDAPSSDDLEQFAKQFKQRRIKTGFTQADVGLALGTLYGNVFSQTTICRFEALQLSFKNMCKLKPLLNKWLEETDSSS, for which the abundance fitness was -0.647 ± 0.17.
For the variant EDAPSSDDLEQFAKQFKQRRIKQGFTQADVGLALGTLYGNVFSQTTICRFEALQLSFKNMCKLKPLLNKWLEETDSSS, the abundance fitness was -0.31 ± 0.12.
Then EDAPSSDDLEQFAKQFKQRRIKLGFEQADVGLALGTLYGNVFSQTTICRFEALQLSFKNMCKLKPLLNKWLEETDSSS, with -0.298 ± 0.12; and EDAPSSDDLEQFAKQFKQRRIKLGFHQADVGLALGTLYGNVFSQTTICRFEALQLSFKNMCKLKPLLNKWLEETDSSS, with -0.15 ± 0.23; and EDAPSSDDLEQFAKQFKQRRIKLGFGQADVGLALGTLYGNVFSQTTICRFEALQLSFKNMCKLKPLLNKWLEETDSSS, with -0.456 ± 0.083.
Then EDAPSSDDLEQFAKQFKQRRIKLGFIQADVGLALGTLYGNVFSQTTICRFEALQLSFKNMCKLKPLLNKWLEETDSSS, with -0.951 ± 0.41; and EDAPSSDDLEQFAKQFKQRRIKLGFDQADVGLALGTLYGNVFSQTTICRFEALQLSFKNMCKLKPLLNKWLEETDSSS, with -0.86 ± 0.41.
The value for EDAPSSDDLEQFAKQFKQRRIKLGFAQADVGLALGTLYGNVFSQTTICRFEALQLSFKNMCKLKPLLNKWLEETDSSS was -0.497 ± 0.097.
As to EDAPSSDDLEQFAKQFKQRRIKLKFTQADVGLALGTLYGNVFSQTTICRFEALQLSFKNMCKLKPLLNKWLEETDSSS, the abundance fitness was -0.423 ± 0.15.
The value for EDAPSSDDLEQFAKQFKQRRIKLAFTQADVGLALGTLYGNVFSQTTICRFEALQLSFKNMCKLKPLLNKWLEETDSSS was -0.739 ± 0.13; that for EDAPSSDDLEQFAKQFKQRRIKLSFTQADVGLALGTLYGNVFSQTTICRFEALQLSFKNMCKLKPLLNKWLEETDSSS was -0.454 ± 0.1.
Then EDAPSSDDLEQFAKQFKQRRIKLWFTQADVGLALGTLYGNVFSQTTICRFEALQLSFKNMCKLKPLLNKWLEETDSSS, with -0.806 ± 0.19.
Then EDAPSSDDLEQFAKQFKQRRIKLPFTQADVGLALGTLYGNVFSQTTICRFEALQLSFKNMCKLKPLLNKWLEETDSSS, with -0.73 ± 0.21; and EDAPSSDDLEQFAKQFKQRRIKLRFTQADVGLALGTLYGNVFSQTTICRFEALQLSFKNMCKLKPLLNKWLEETDSSS, with -0.75 ± 0.1; and EDAPSSDDLEQFAKQFKQRRIKLMFTQADVGLALGTLYGNVFSQTTICRFEALQLSFKNMCKLKPLLNKWLEETDSSS, with -0.78 ± 0.25.
On to EDAPSSDDLEQFAKQFKQRRIKLNFTQADVGLALGTLYGNVFSQTTICRFEALQLSFKNMCKLKPLLNKWLEETDSSS, for which the abundance fitness is -0.587 ± 0.22.
Consider EDAPSSDDLEQFAKQFKQRRIKLTFTQADVGLALGTLYGNVFSQTTICRFEALQLSFKNMCKLKPLLNKWLEETDSSS, for which the abundance fitness is -0.805 ± 0.2.
For EDAPSSDDLEQFAKQFKQRRIKLLFTQADVGLALGTLYGNVFSQTTICRFEALQLSFKNMCKLKPLLNKWLEETDSSS, the abundance fitness is -0.726 ± 0.12.
The value for EDAPSSDDLEQFAKQFKQRRIKLVFTQADVGLALGTLYGNVFSQTTICRFEALQLSFKNMCKLKPLLNKWLEETDSSS was -1.01 ± 0.17; that for EDAPSSDDLEQFAKQFKQRRIKLDFTQADVGLALGTLYGNVFSQTTICRFEALQLSFKNMCKLKPLLNKWLEETDSSS was -0.7 ± 0.39.
The value for EDAPSSDDLEQFAKQFKQRRIKLQFTQADVGLALGTLYGNVFSQTTICRFEALQLSFKNMCKLKPLLNKWLEETDSSS was -0.796 ± 0.19; that for EDAPSSDDLEQFAKQFKQRRIKLIFTQADVGLALGTLYGNVFSQTTICRFEALQLSFKNMCKLKPLLNKWLEETDSSS was -1.02 ± 0.44; that for EDAPSSDDLEQFAKQFKQRRIRLGFTQADVGLALGTLYGNVFSQTTICRFEALQLSFKNMCKLKPLLNKWLEETDSSS was -0.035 ± 0.048.
The value for EDAPSSDDLEQFAKQFKQRRICLGFTQADVGLALGTLYGNVFSQTTICRFEALQLSFKNMCKLKPLLNKWLEETDSSS was -0.347 ± 0.13; that for EDAPSSDDLEQFAKQFKQRRIILGFTQADVGLALGTLYGNVFSQTTICRFEALQLSFKNMCKLKPLLNKWLEETDSSS was -0.743 ± 0.42.
EDAPSSDDLEQFAKQFKQRRIYLGFTQADVGLALGTLYGNVFSQTTICRFEALQLSFKNMCKLKPLLNKWLEETDSSS: the abundance fitness was 0.071 ± 0.2.
EDAPSSDDLEQFAKQFKQRRIWLGFTQADVGLALGTLYGNVFSQTTICRFEALQLSFKNMCKLKPLLNKWLEETDSSS: the abundance fitness is -0.537 ± 0.12.
For EDAPSSDDLEQFAKQFKQRRIFLGFTQADVGLALGTLYGNVFSQTTICRFEALQLSFKNMCKLKPLLNKWLEETDSSS, the abundance fitness was -0.32 ± 0.19.
For EDAPSSDDLEQFAKQFKQRRIGLGFTQADVGLALGTLYGNVFSQTTICRFEALQLSFKNMCKLKPLLNKWLEETDSSS, the abundance fitness is -0.349 ± 0.061.
Then EDAPSSDDLEQFAKQFKQRRIDLGFTQADVGLALGTLYGNVFSQTTICRFEALQLSFKNMCKLKPLLNKWLEETDSSS, with 0.038 ± 0.085; and EDAPSSDDLEQFAKQFKQRRIVLGFTQADVGLALGTLYGNVFSQTTICRFEALQLSFKNMCKLKPLLNKWLEETDSSS, with -0.428 ± 0.094; and EDAPSSDDLEQFAKQFKQRRITLGFTQADVGLALGTLYGNVFSQTTICRFEALQLSFKNMCKLKPLLNKWLEETDSSS, with -0.106 ± 0.084.
For EDAPSSDDLEQFAKQFKQRRILLGFTQADVGLALGTLYGNVFSQTTICRFEALQLSFKNMCKLKPLLNKWLEETDSSS, the abundance fitness is -0.128 ± 0.066.
Regarding EDAPSSDDLEQFAKQFKQRRIPLGFTQADVGLALGTLYGNVFSQTTICRFEALQLSFKNMCKLKPLLNKWLEETDSSS, the abundance fitness is -1.04 ± 0.28.
Then EDAPSSDDLEQFAKQFKQRRIALGFTQADVGLALGTLYGNVFSQTTICRFEALQLSFKNMCKLKPLLNKWLEETDSSS, with 0.058 ± 0.057; and EDAPSSDDLEQFAKQFKQRRINLGFTQADVGLALGTLYGNVFSQTTICRFEALQLSFKNMCKLKPLLNKWLEETDSSS, with 0.126 ± 0.12.
Then EDAPSSDDLEQFAKQFKQRRIHLGFTQADVGLALGTLYGNVFSQTTICRFEALQLSFKNMCKLKPLLNKWLEETDSSS, with 0.068 ± 0.24.
EDAPSSDDLEQFAKQFKQRRWKLGFTQADVGLALGTLYGNVFSQTTICRFEALQLSFKNMCKLKPLLNKWLEETDSSS: the abundance fitness was -0.544 ± 0.12.
As to EDAPSSDDLEQFAKQFKQRRPKLGFTQADVGLALGTLYGNVFSQTTICRFEALQLSFKNMCKLKPLLNKWLEETDSSS, the abundance fitness was -1.18 ± 0.3.
Then EDAPSSDDLEQFAKQFKQRRYKLGFTQADVGLALGTLYGNVFSQTTICRFEALQLSFKNMCKLKPLLNKWLEETDSSS, with 0.147 ± 0.17; and EDAPSSDDLEQFAKQFKQRRQKLGFTQADVGLALGTLYGNVFSQTTICRFEALQLSFKNMCKLKPLLNKWLEETDSSS, with -0.178 ± 0.095.
Then EDAPSSDDLEQFAKQFKQRRMKLGFTQADVGLALGTLYGNVFSQTTICRFEALQLSFKNMCKLKPLLNKWLEETDSSS, with -0.236 ± 0.082; and EDAPSSDDLEQFAKQFKQRRRKLGFTQADVGLALGTLYGNVFSQTTICRFEALQLSFKNMCKLKPLLNKWLEETDSSS, with -0.338 ± 0.061.
Then EDAPSSDDLEQFAKQFKQRRIKLGKTQADVGLALGTLYGNVFSQTTICRFEALQLSFKNMCKLKPLLNKWLEETDSSS, with -0.095 ± 0.094; and EDAPSSDDLEQFAKQFKQRRIKLGSTQADVGLALGTLYGNVFSQTTICRFEALQLSFKNMCKLKPLLNKWLEETDSSS, with -0.505 ± 0.12; and EDAPSSDDLEQFAKQFKQRRIKLGNTQADVGLALGTLYGNVFSQTTICRFEALQLSFKNMCKLKPLLNKWLEETDSSS, with -0.531 ± 0.24.
In the case of EDAPSSDDLEQFAKQFKQRRIKLGMTQADVGLALGTLYGNVFSQTTICRFEALQLSFKNMCKLKPLLNKWLEETDSSS, the abundance fitness was -0.276 ± 0.13.
For the variant EDAPSSDDLEQFAKQFKQRRIKLGDTQADVGLALGTLYGNVFSQTTICRFEALQLSFKNMCKLKPLLNKWLEETDSSS, the abundance fitness was -0.811 ± 0.45.
Then EDAPSSDDLEQFAKQFKQRRIKLGLTQADVGLALGTLYGNVFSQTTICRFEALQLSFKNMCKLKPLLNKWLEETDSSS, with -0.12 ± 0.069; and EDAPSSDDLEQFAKQFKQRRIKLGPTQADVGLALGTLYGNVFSQTTICRFEALQLSFKNMCKLKPLLNKWLEETDSSS, with -0.965 ± 0.25; and EDAPSSDDLEQFAKQFKQRRIKLGVTQADVGLALGTLYGNVFSQTTICRFEALQLSFKNMCKLKPLLNKWLEETDSSS, with -0.31 ± 0.086.
For EDAPSSDDLEQFAKQFKQRRIKLGCTQADVGLALGTLYGNVFSQTTICRFEALQLSFKNMCKLKPLLNKWLEETDSSS, the abundance fitness was -0.217 ± 0.13.
Then EDAPSSDDLEQFAKQFKQRRIKLGGTQADVGLALGTLYGNVFSQTTICRFEALQLSFKNMCKLKPLLNKWLEETDSSS, with -0.859 ± 0.15; and EDAPSSDDLEQFAKQFKQRRIKLGRTQADVGLALGTLYGNVFSQTTICRFEALQLSFKNMCKLKPLLNKWLEETDSSS, with -0.342 ± 0.072; and EDAPSSDDLEQFAKQFKQRRIKLGWTQADVGLALGTLYGNVFSQTTICRFEALQLSFKNMCKLKPLLNKWLEETDSSS, with -0.536 ± 0.14.
Then EDAPSSDDLEQFAKQFKQRRIKLGITQADVGLALGTLYGNVFSQTTICRFEALQLSFKNMCKLKPLLNKWLEETDSSS, with -0.404 ± 0.2; and EDAPSSDDLEQFAKQFKQRRIKLGYTQADVGLALGTLYGNVFSQTTICRFEALQLSFKNMCKLKPLLNKWLEETDSSS, with 0.112 ± 0.14.
The value for EDAPSSDDLEQFAKQFKQRRIKLGQTQADVGLALGTLYGNVFSQTTICRFEALQLSFKNMCKLKPLLNKWLEETDSSS was -0.511 ± 0.14.
